Assay results as given in patent publication US20200016207A1, “[…] c-MPL PROVIDES LIGAND-DEPENDENT CO-STIMULATION AND CYTOKINE SIGNALS TO TCR-ENGINEERED T CELLS” (Baylor College of Medicine, priority 2017, published 2020).

B1: thrombopoietin (protein)
chain: SPAPPACDLRVLSKLLRDSHVLHSRLSQCPEVHPLPTPVLLPAVDFSLGEWKTQMEETKAQDILGAVTLLLEGVMAARGQLGPTCLSSLLGQLSGQVRLLLGALQSLLGTQLPPQGRTTAHKDPNAIFLSFQHLLRGKVRFLMLVGGSTLCVRRAPPTTAVPSRTSLVLTLNEL
notes: recombinant human thrombopoietin, ligand of c-MPL

What was measured:
[1] = target: hematopoietic growth factor receptor c-MPL (myeloproliferative leukemia), the receptor for thrombopoietin, transgenic on human T cells (Homo sapiens (Human)) (UniProt P40238); experiment: cell-based or functional assay
[2] = tested on: NT T cells; experiment: Expansion of non-transduced (NT) T cells in TPO; type: cell-based, human; settings: cell number from 3×10^6 cells, TPO 50 ng/ml, mean±SD, n=4
Description: (§1) […] Transient retroviral supernatant was prepared by transfection of 293T cells and activated T cells were transduced as described (Arber et al., 2015). The number of retroviral integrants in TCR+c-MPL+ T cells was estimated by quantitative PCR. Whole PBMC's were isolated from fresh buffy coats by Lymphoprep (Axis-Shield) density gradient centrifugation. If required, CD8+ T cells were isolated from PBMCs using magnetic beads and columns (Miltenyi Biotec). […]
(§2) Cells were stained ith antibodies and analyzed by flow cytometry. […] Cell viability was assessed by 7-AAD staining. T cells and tumor cell populations from co-culture assays were quantified by adding CountBright Beads (Invitrogen) to the analysis. T cell memory marker expression on CD8+ T cells re-covered from co-cultures was analyzed by staining cells with FITC-, PE-, ECD-, PerCP-, APC-, APC-AF750, or V450-conjugated Abs against CD45RO, CD45RA, CD62L, CCR7, CD110, mCβ, CD19, and 7AAD. […] To assess cell proliferation, cells were labeled with Carboxyfluorescein succinimidyl ester (CFSE, ThermoFisher) and analyzed after 7 days of culture. […]

[3] = tested on: c-MPL downstream signaling in c-MPL+ T cells; experiment: Phosflow for pSTAT5, c-MPL downstream signaling; type: cell-based, human; settings: rhTPO 5 and 50 ng/ml; EP 0.1 μg/ml; 1 or 24 hours
Description: (§3) Cells were stained ith antibodies and analyzed by flow cytometry. Cells were stained with FITC-, phycoerythrin- (PE-), peridinin chlorophyll protein-(PerCP-), or allophycocyanin-conjugated (APC-conjugated) antibodies (Abs) against CD3, CD4, CD8, CD110 (c-MPL), murine TCR constant region (mCβ, ebioscience), CD19, or CD138. Cell viability was assessed by 7-AAD staining. T cells and tumor cell populations from co-culture assays were quantified by adding CountBright Beads (Invitrogen) to the analysis. T cell memory marker expression on CD8+ T cells re-covered from co-cultures was analyzed by staining cells with FITC-, PE-, ECD-, PerCP-, APC-, APC-AF750, or V450-conjugated Abs against CD45RO, CD45RA, CD62L, CCR7, CD110, mCβ, CD19, and 7AAD. Intracellular staining for phosphoproteins pSTAT3 and pSTAT5 was performed with PE- and Pacific Blue-conjugated Abs and Phosflow reagents (BD). To assess cell proliferation, cells were labeled with Carboxyfluorescein succinimidyl ester (CFSE, ThermoFisher) and analyzed after 7 days of culture. All antibodies were purchased from BD or Beckman Coulter unless otherwise indicated, and all staining procedures were performed according to the manufacturer's recommendation. Data acquisition was performed on a BD FACSCalibur using CellQuest software or a Beckman Coulter Gallios flow cytometer using Kaluza software. […]

[4] = tested on: TCR+c-MPL+ T cells; experiment: RNA-sequencing and GSEA of sequential killer T cells; type: cell-based, human; settings: after 3 BV173 challenges, rhTPO 50 ng/mL or EP 0.1 μg/mL
Source text: Total RNA was extracted from T cells of 3 independent donors, purified after sequential co-culture in no cytokine, rhTPO or EP (see above and FIG. 4A) using the RNeasy Mini Kit (Qiagen). T cell purification consisted of either dead cell removal alone (see above) or dead cell removal followed by FACS sorting (FACS Aria, BD, Flow Cytometry Core Laboratory at the Texas Children's Hospital Feigin Center), to achieve a >98% T cell purity and T cell viability of >90%. Total RNA samples were sent to GENEWIZ for library preparation and next generation sequencing, with 30 million reads per sample at a 1×50 base pair configuration.
RNA-Seq was performed in triplicates from 3 independent donors for all 3 conditions (control, rhTPO and EP; see main text). Fastq files were aligned to the transcriptome using HiSat2 with default parameters (Kim et al., 2015). Following alignment and quality control analysis, one replicate of the control dataset was removed due to poor signal to noise ratio. Transcripts were assembled and FPKM values were generated using cuffquant and cuffnorm from the cufflinks software suite (Trapnell et al., 2010) Active transcripts were defined as transcripts with a normalized FPKM value greater than 1 in at least one sample. […]

[5] = tested on: TCR+ T cells; experiment: Antigen-specific expansion with survivin peptide-pulsed aAPCs, TCR+ T cells; type: cell-based, human; settings: IL-2 50 U/mL; rhTPO up to 500 ng/ml
Description: At the end of the first stimulation (7 days), cells were collected, counted, phenotyped and re-stimulated with fresh peptide-pulsed aAPCs under the same conditions. Fold expansion was recorded at the end of the second stimulation.

[6] = tested on: BV173 leukemia cells; experiment: Co-culture of TCR+c-MPL+ T cells with BV173 leukemia cells; type: cell-based, human; settings: day 5, E:T 1:3; rhTPO 50 ng/ml, IL2 25 U/ml; noCK 16.7±8.1×10^4
Description: as §3

[7] = tested on: U266 myeloma cells; experiment: Co-culture of TCR+c-MPL+ T cells with U266 myeloma cells; type: cell-based, human; settings: rhTPO 50 ng/ml, IL2 25 U/ml, n=3
Description: as §3

[8] = tested on: BV173 leukemia cells; experiment: Serial (sequential) co-culture with BV173 leukemia cells; type: cell-based, human
Description: Cells were stained ith antibodies and analyzed by flow cytometry. Cells were stained with FITC-, phycoerythrin- (PE-), peridinin chlorophyll protein-(PerCP-), or allophycocyanin-conjugated (APC-conjugated) antibodies (Abs) against CD3, CD4, CD8, CD110 (c-MPL), murine TCR constant region (mCβ, ebioscience), CD19, or CD138. Cell viability was assessed by 7-AAD staining. T cells and tumor cell populations from co-culture assays were quantified by adding CountBright Beads (Invitrogen) to the analysis. T cell memory marker expression on CD8+ T cells re-covered from co-cultures was analyzed by staining cells with FITC-, PE-, ECD-, PerCP-, APC-, APC-AF750, or V450-conjugated Abs against CD45RO, CD45RA, CD62L, CCR7, CD110, mCβ, CD19, and 7AAD. Intracellular staining for phosphoproteins pSTAT3 and pSTAT5 was performed with PE- and Pacific Blue-conjugated Abs and Phosflow reagents (BD). To assess cell proliferation, cells were labeled with Carboxyfluorescein succinimidyl ester (CFSE, ThermoFisher) and analyzed after 7 days of culture. All antibodies were purchased from BD or Beckman Coulter unless otherwise indicated, and all staining procedures were performed according to the manufacturer's recommendation. Data acquisition was performed on a BD FACSCalibur using CellQuest software or a Beckman Coulter Gallios flow cytometer using Kaluza software. Data analysis was performed with FlowJo software (Tree Star Inc.).
BV173 or U266B1 cells and T cells were co-cultured in up to eight replicate wells at various E:T ratios in CTL media with no cytokines, rhTPO (5 ng/mL or 50 ng/mL), or EP (0.1 μg/mL). […] Co-culture supernatants were harvested 24 hours after initial plating or tumor-cell add-back to replicate wells and stored at −80° C. for further analysis.

[9] = tested on: immune synapses between TCR+c-MPL+ T cells and BV173 leukemia cells; experiment: Immunological synapse imaging (confocal microscopy); type: cell-based, human; settings: mean±SD
Description: T cells isolated from sequential killing co-cultures and fresh BV173 target cells were mixed at E:T 1:2, incubated for 10 minutes, fixed, permeabilized, stained with the appropriate antibodies, and analyzed on a Leica TCS SP8 laser scanning microscope. T cells were co-cultured with BV173 cells at an E:T ratio of 1:5 in CTL media with no cytokines, rhTPO (50 ng/mL) or EP (0.1 μg/mL). After one killing (no cytokine condition) or three sequential killings (rhTPO and EP conditions), cells were collected and dead cells removed (Dead Cell Removal Kit, Miltenyi) (FIG. 4A). For confocal microscopy, T cells and fresh BV173 target cells were mixed at E:T ratio of 1:2, incubated for ten minutes in a tube and ten minutes on silane-coated glass slides (Electron Microscopy Sciences) at 37° C. Cells were then permeabilized and fixed with Perm/Fix solution (BD) for 15 minutes at room temperature and stained with anti-Pericentrin (rabbit, Abcam) and anti-Perforin Alexa-488 (mouse, BD Biosciences) primary antibodies. Phalloidin 568 (Life Technologies) was used to detect F-actin. Cells were imaged as Z stacks of 0.2 μm thickness to cover their entire volume on a Leica TCS SP8 laser scanning microscope using a 100× objective. Images were acquired with the LASAF software (Leica) and analyzed with Imaris software (Imaris) and Fiji.

[10] = tested on: TCR+c-MPL+ T cells; experiment: Antigen-specific expansion with survivin peptide-pulsed aAPCs, TCR+c-MPL+ T cells; type: cell-based, human; settings: rhTPO 5, 50, 500 ng/ml, two stimulations
Description: aAPCs (described above) were pulsed with the […] survivin peptide (Genemed Synthesis), irradiated at 100 cGy, and used to stimulate T cells at an E:T ratio of 4:1 with IL-2 (50 U/mL) or rhTPO (5 ng/mL, 50 ng/mL, or 500 ng/mL). At the end of the first stimulation (7 days), cells were collected, counted, phenotyped and re-stimulated with fresh peptide-pulsed aAPCs under the same conditions. Fold expansion was recorded at the end of the second stimulation.

[11] = tested on: c-MPL+ cells; experiment: c-MPL ligand-dependent STAT3/STAT5 phosphorylation in TCR+c-MPL+ T cells; type: cell-based, human; settings: TPO 50 ng/ml or EP 0.1 μg/ml, 1 or 24 hours; c-MPL- cells did not
Description: Similar results were obtained with the TPO small molecule agonist EP. A dose-titration experiment was used to determine the optimal concentration of EP to support c-MPL+ T cell expansion (FIG. 2C). EP was previously shown to inhibit leukemia cell proliferation at higher concentrations (1-10 μg/ml) by reduction of intracellular iron, a c-MPL independent effect (Roth et al., 2012). NT or c-MPL+ T cells were re-activated on OKT3/CD28-coated plates in the presence of different EP concentrations and expansion of viable T cells was determined after 7 days. […] Next, it was evaluated whether rhTPO enhanced the anti-tumor function of TCR+c-MPL+ T cells using two different HLA-A*0201+survivin+hematologic malignancies as targets (U266 multiple myeloma, BV173 leukemia) (FIGS. 2E-2F). […]
Cells were stained ith antibodies and analyzed by flow cytometry. […] Cell viability was assessed by 7-AAD staining. T cells and tumor cell populations from co-culture assays were quantified by adding CountBright Beads (Invitrogen) to the analysis. T cell memory marker expression on CD8+ T cells re-covered from co-cultures was analyzed by staining cells with FITC-, PE-, ECD-, PerCP-, APC-, APC-AF750, or V450-conjugated Abs against CD45RO, CD45RA, CD62L, CCR7, CD110, mCβ, CD19, and 7AAD. […]

[12] = tested on: c-MPL+ T cells; experiment: Expansion of polyclonal c-MPL+ T cells in TPO; type: cell-based, human; settings: cell number from 3×10^6 cells, TPO 50 ng/ml, mean±SD, n=4
Description: as §1, §2

[13] = after three tumor cell challenges
[14] = baseline after T cell expansion

| Molecule | T cell expansion in TPO 50 ng/ml (cell number by day 7 from 3x10^6 cells) [1] | NT cells in TPO by day 7 [2] | STAT5 phosphorylation in c-MPL+ T cells [3] | cell cycle associated genes in T cells from treated co-cultures versus controls [4] | antigen-specific expansion of TCR+ T cells [5] | T cell count in BV173 co-culture [6] | residual U266 cells ([7]; day 5, E:T 1:1, TCR+c-MPL+ T cells, noCK 43.3±1.1×10^5) | T cell count in U266 co-culture ([7]; day 5, E:T 1:1, noCK 1.84±0.31×10^5) | T cell expansion in serial co-culture ([8]; E:T 1:5, versus no cytokines) | CD45RA+CD45RO+ and central memory cells among persistent T cells ([8]; serial co-culture) | Th1 cytokine production in sequential co-cultures ([8]; supernatants 24 hours after tumor cell challenge) | MTOC to synapse distance, co-culture [9, 13] | perforin distance to the synapse (perforin convergence), co-culture [9, 13] | actin accumulation at the synapse, co-culture ([9]; after three tumor cell challenges, rhTPO 50 ng/mL or EP 0.1 μg/mL) | MTOC to synapse distance, baseline [9, 14] | actin accumulation at the synapse, baseline [9, 14] | perforin distance to the synapse (perforin convergence), baseline [9, 14] | antigen-specific expansion of TCR+c-MPL+ T cells [10] | STAT3 and STAT5 phosphorylation in c-MPL+ cells [11] | c-MPL+ cells in TPO by day 7 [12] |
| --- | --- | --- | --- | --- | --- | --- | --- | --- | --- | --- | --- | --- | --- | --- | --- | --- | --- | --- | --- | --- |
| recombinant human thrombopoietin (TPO) (from UniProt P40225 22-195) (ligand) | 7.44e+06 cells | – | – | – | – | – | – | – | – | – | – | – | – | – | – | – | – | – | – | – |
| B1 | – | 0.89±0.61×10^6 | occurred | downregulated | not | 31.5±19.1×10^4 | 22.8±11.2×10^5 | 4.41±5.11×10^5 | significantly enhanced | enrichment | sustained | 1.46±1.58 μm | 3.68±1.70 μm | 52.60±16.32% | 3.96±2.49 μm | 35.23±16.41% | 3.53±1.00 μm | expanded in a TPO-dose dependent manner | phosphorylated | 7.44±0.99×10^6 |
